Target: preF^C (soluble RSV F A2 prefusion F in the Cav1 background with V185Y, K226Y, N428Y, L512V, L513V and Y519F, before crosslinking) (respiratory syncytial virus (RSV F A2) | not stated) (UniProt P03420)
Assay: cross-linking; dityrosine crosslinking reaction (Arthromyces ramosus peroxidase and H2O2) of the purified protein; reducing SDS-PAGE (TCEP, 95 °C), Coomassie stain, gel shift from monomer to trimer

Work on “preF^C (soluble RSV F A2 prefusion F in the Cav1 background with V185Y, K226Y, N428Y, L512V, L513V and Y519F, before crosslinking) (from UniProt P03420 26-109) (natural protein)” yielded a stoichiometry N of 3.
